In PMC3630801 (Biochemistry, 2013) one finds binding result and Kd data, which are given here for four molecules.

Like-named read-outs stand apart in the source and are kept apart here.

Data set [1] has as its target T1, BtuB, Escherichia coli vitamin B12 transporter (wild type) (Escherichia coli, UniProt P06129 21-614).
T1 sequence (looked up): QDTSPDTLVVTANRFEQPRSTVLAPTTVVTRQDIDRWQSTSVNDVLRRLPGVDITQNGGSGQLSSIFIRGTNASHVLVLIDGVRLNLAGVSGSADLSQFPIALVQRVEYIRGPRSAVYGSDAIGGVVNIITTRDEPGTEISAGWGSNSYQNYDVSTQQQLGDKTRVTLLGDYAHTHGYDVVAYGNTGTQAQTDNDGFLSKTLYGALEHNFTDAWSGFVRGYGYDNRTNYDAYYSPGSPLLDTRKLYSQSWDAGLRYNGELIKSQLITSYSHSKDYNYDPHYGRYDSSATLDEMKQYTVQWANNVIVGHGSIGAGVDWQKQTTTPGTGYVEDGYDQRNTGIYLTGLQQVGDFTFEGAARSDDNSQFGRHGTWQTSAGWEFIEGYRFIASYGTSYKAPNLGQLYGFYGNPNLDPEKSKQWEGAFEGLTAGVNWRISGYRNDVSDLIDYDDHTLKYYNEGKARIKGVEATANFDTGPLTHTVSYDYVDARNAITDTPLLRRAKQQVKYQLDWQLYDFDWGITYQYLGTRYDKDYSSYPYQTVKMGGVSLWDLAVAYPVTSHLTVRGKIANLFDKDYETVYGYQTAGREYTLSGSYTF
Put plainly: continuous-wave EPR lineshape.

For data set [2], the target named is T2, FhuA, Escherichia coli ferrichrome transporter (Escherichia coli, UniProt P06971 34-747).
T2 sequence (looked up): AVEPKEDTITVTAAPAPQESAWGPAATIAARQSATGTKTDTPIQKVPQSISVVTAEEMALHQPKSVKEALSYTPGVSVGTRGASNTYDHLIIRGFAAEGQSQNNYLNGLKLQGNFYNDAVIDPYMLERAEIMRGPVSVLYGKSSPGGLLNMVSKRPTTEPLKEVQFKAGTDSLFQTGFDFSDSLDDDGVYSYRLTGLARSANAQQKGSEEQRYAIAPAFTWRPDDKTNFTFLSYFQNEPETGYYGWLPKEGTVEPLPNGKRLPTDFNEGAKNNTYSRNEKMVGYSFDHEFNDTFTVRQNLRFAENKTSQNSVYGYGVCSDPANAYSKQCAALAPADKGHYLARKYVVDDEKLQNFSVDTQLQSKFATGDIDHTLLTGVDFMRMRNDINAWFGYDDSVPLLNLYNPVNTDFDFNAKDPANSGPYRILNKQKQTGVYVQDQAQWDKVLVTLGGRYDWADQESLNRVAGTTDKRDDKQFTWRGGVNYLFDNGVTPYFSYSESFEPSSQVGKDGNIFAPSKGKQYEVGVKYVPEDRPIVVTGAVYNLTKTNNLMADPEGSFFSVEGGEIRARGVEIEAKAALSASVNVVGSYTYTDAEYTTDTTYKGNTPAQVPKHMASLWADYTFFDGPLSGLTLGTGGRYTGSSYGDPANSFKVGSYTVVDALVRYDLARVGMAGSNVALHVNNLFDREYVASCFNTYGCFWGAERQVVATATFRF
Put plainly: fluorescence polarisation.

In data set [3] the target is T1, BtuB, Escherichia coli vitamin B12 …. Description: fluorescence polarisation.
In data set [4] the target is T2, FhuA, Escherichia coli ferrichrome …. Description: fluorescence polarisation. This is another data set of the same source.
The target in data set [5] is T1, BtuB, Escherichia coli vitamin B12 …. Description: fluorescence polarisation. This is another data set of the same source.
Data set [6] deals with the molecule itself. Put plainly: DEER.
Data set [7] concerns the target T2, FhuA, Escherichia coli ferrichrome …. Description: DEER.
Data set [8] has as its target T3, FecA, Escherichia coli ferric citrate transporter (Escherichia coli, UniProt P13036 34-774).
T3 sequence (looked up): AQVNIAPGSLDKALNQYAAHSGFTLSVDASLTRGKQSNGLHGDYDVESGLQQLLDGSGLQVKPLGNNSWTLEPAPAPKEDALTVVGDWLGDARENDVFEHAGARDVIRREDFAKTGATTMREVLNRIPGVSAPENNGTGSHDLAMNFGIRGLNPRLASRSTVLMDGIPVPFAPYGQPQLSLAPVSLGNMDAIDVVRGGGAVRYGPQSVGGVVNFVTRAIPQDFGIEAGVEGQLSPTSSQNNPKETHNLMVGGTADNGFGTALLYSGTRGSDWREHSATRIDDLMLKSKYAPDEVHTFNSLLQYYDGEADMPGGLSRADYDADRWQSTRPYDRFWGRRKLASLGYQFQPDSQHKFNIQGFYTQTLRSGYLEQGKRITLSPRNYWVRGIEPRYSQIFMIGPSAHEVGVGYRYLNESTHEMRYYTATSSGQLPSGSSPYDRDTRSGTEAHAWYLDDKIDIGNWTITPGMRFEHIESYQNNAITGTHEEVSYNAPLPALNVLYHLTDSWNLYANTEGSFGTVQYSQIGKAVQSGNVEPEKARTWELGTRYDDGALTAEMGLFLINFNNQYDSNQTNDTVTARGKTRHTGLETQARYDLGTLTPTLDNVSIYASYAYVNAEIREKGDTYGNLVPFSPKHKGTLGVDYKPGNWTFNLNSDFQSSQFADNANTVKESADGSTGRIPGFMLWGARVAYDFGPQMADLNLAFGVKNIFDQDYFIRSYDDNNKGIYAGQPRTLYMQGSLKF
Description: DEER.

B1: TonB_(ΔTMD) R187R1 (spin-labeled) (domain or fragment)
chain: not shown
modifications: R1 spin-label side chain (cysteine derivatized with MTSL) at 187
For B1, the binding result in data set [1] was “binds”.

B2: TonB_(ΔTMD) L194C labeled with BODIPY FL (domain or fragment)
chain: not shown
modifications: BODIPY FL N-(2-aminoethyl)maleimide on Cys194 (labeling efficiency ~75%)
On to B2, for which the equilibrium dissociation constant (Kd) in data set [2] is 38 nM; in data set [3] it was 26 nM; in data set [4], 64 nM; in data set [5], 61 nM.

B3: TonB_(ΔTMD) E203R1 (spin-labeled) (domain or fragment)
chain: not shown
modifications: R1 spin-label side chain (cysteine derivatized with MTSL) at 203
Consider B3, for which the binding result in data set [1], in data set [6], in data set [7] and in data set [8] was “binds” each time.

B4: TonB_(ΔTMD) I224R1 (spin-labeled) (domain or fragment)
chain: not shown
modifications: R1 spin-label side chain (cysteine derivatized with MTSL) at 224
B4: the binding result in data set [1] and in data set [6] was “binds” each time.
